Results taken from the supplement of paper PMC10567573.

B1: ZNF649 (parent)
chain: YQAGKPDALTKLEQGEPLWTLEDE

Variants of: B1
Test: protein stability index of a GFP-peptide fusion (GPS, HEK-293T) (PSI 1-6); higher = more stable
Conditions: c terminus: a fixed tail appended
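Note: lentivirally expressed fusions sorted by FACS into six bins by GFP to DsRed ratio, PSI derived from sequencing read proportions per bin multiplied by bin number.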

Protein stability index: each site, then its substitutions
T10: M 4.22, W 2.31, K 3.15, P 4.97, Q 4.55, S 4.62, D 4.91, I 4.02, Y 4.58, V 4.62, G 3.69, E 4.5, C 4.28, L 4.39, A 4.88, R 3.97, N 4.41
Q14: S 4.13, M 4.17, T 4.71, R 3.8, L 4.07, I 4.44, G 4.92, H 4.14, P 4.63, C 4.66, Y 3.53, D 4.67, W 4.44, K 4.28, F 3.89, A 4.11, V 4.71, N 4.07
K11: I 4.54, G 4.21, F 3.37, R 4.14, T 4.09, D 4.86, E 4.06, V 4.69, C 4.45, Y 3.51, P 5.28, N 4.51, S 4.19, H 4.78, L 4.23, Q 4.76, A 4.66, M 4.77, W 2.86
L12: W 3.75, F 4.37, I 4.56, M 4.54, P 4.38, A 4.95, G 4.83, V 4.32, Y 4.68, C 5.11, K 4.17, N 4.78, S 4.52, R 4.4, H 4.73, T 4.22, Q 4.56
A8: Q 4.41, S 4.46, W 1.18, G 4.87, I 4.08, D 4.94, M 3.83, H 4.04, V 3.51, L 3.56, R 4.65, E 5.31, F 2.91, T 3.95, C 3.61, K 4.85, N 4.49, P 4.27
A3: V 4.42, E 4.65, C 3.83, N 4.71, T 4.54, M 4.1, W 2.2, P 4.36, H 4.14, Y 4.25, R 3.66, Q 4.75, L 4.26, I 4.51, K 4.75, F 3.64
P17: G 3.47, R 3.94, W 3.36, N 4.41, Q 4.47, L 3.95, F 3.68, Y 3.23, K 3.97, E 4.21, M 4.1, I 3.22, A 4.86, C 3.46, H 4.1
L18: M 3.84, A 4.5, F 3.54, R 4.96, G 4.83, Q 5.19, T 5.06, H 5.06, S 5.32, E 5.49, I 3.53, K 5.03, P 5.35, C 4.91, D 5.11
L9: W 1.86, M 3.61, G 4.55, D 5.48, N 3.99, S 4.9, P 4.38, C 4.63, H 4.04, K 4.86, R 4.29, V 4.62, T 4.71, Y 4.54, Q 4.67, E 4.93, A 4.95, I 4.69, F 4.01
P6: C 4.17, M 3.85, K 4.29, V 4.42, T 4.64, D 3.77, N 4.15, A 3.88, S 4.19, F 3.31, Y 3.91, H 3.93, L 3.79
